Results as given in article PMC4183622.

Tests used:
[1] = target: Tr3DCatch1 (chimeric SpyAvidin tetramer of three core traptavidin subunits and one Dead streptavidin-SpyCatcher subunit) (UniProt P22629); assay: gel shift on SDS-PAGE of unboiled samples, Coomassie staining; SpyAvidin tetramer incubated with the ligand for 1 h at room temperature in PBS; the SpyTag/SpyCatcher link is a covalent isopeptide bond
[2] = target: Tr (core traptavidin), homotetramer Tr4; assay: mixed refolding, ion-exchange chromatography and SDS-PAGE with or without boiling; subunits refolded from dissolved inclusion bodies (alone or mixed) by dilution into PBS; tetramers separated on Q-HP with a NaCl gradient in 20 mM Tris-HCl pH 8.0; tetramers stay assembled on SDS-PAGE unless boiled
[3] = target: Tre (core traptavidin with a C-terminal hexaglutamate tag), homotetramer Tre4; assay: as above

Substance: KTag-AffiHER2-SpyTag (SpyTag-linked affibody against HER2)
- stoichiometry N [1]: 1

Substance: Tr (core traptavidin), homotetramer Tr4 (complex)
- stoichiometry N [2]: 4

Substance: Tre (core traptavidin with a C-terminal hexaglutamate tag), homotetramer Tre4 (complex)
- stoichiometry N [3]: 4
